Results taken from IntAct's records for PubMed 33727702.

B1: Interferon-induced helicase C domain-containing protein 1 (Homo sapiens), Q9BYX4 (parent)
chain: MSNGYSTDENFRYLISCFRARVKMYIQVEPVLDYLTFLPAEVKEQIQRTVATSGNMQAVELLLSTLEKGVWHLGWTREFVEALRRTGSPLAARYMNPELTDLPSPSFENAHDEYLQLLNLLQPTLVDKLLVRDVLDKCMEEELLTIEDRNRIAAAENNGNESGVRELLKRIVQKENWFSAFLNVLRQTGNNELVQELTGSDCSESNAEIENLSQVDGPQVEEQLLSTTVQPNLEKEVWGMENNSSESSFADSSVVSESDTSLAEGSVSCLDESLGHNSNMGSDSGTMGSDSDEENVAARASPEPELQLRPYQMEVAQPALEGKNIIICLPTGSGKTRVAVYIAKDHLDKKKKASEPGKVIVLVNKVLLVEQLFRKEFQPFLKKWYRVIGLSGDTQLKISFPEVVKSCDIIISTAQILENSLLNLENGEDAGVQLSDFSLIIIDECHHTNKEAVYNNIMRHYLMQKLKNNRLKKENKPVIPLPQILGLTASPGVGGATKQAKAEEHILKLCANLDAFTIKTVKENLDQLKNQIQEPCKKFAIADATREDPFKEKLLEIMTRIQTYCQMSPMSDFGTQPYEQWAIQMEKKAAKEGNRKERVCAEHLRKYNEALQINDTIRMIDAYTHLETFYNEEKDKKFAVIEDDSDEGGDDEYCDGDEDEDDLKKPLKLDETDRFLMTLFFENNKMLKRLAENPEYENEKLTKLRNTIMEQYTRTEESARGIIFTKTRQSAYALSQWITENEKFAEVGVKAHHLIGAGHSSEFKPMTQNEQKEVISKFRTGKINLLIATTVAEEGLDIKECNIVIRYGLVTNEIAMVQARGRARADESTYVLVAHSGSGVIEHETVNDFREKMMYKAIHCVQNMKPEEYAHKILELQMQSIMEKKMKTKRNIAKHYKNNPSLITFLCKNCSVLACSGEDIHVIEKMHHVNMTPEFKELYIVRENKALQKKCADYQINGEIICKCGQAWGTMMVHKGLDLPCLKIRNFVVVFKNNSTKKQYKKWVELPITFPNLDYSECCLFSDED
B2: Interferon-induced helicase C domain-containing protein 1 (Homo sapiens), Q9BYX4 (parent)
chain: B1 chain
partner: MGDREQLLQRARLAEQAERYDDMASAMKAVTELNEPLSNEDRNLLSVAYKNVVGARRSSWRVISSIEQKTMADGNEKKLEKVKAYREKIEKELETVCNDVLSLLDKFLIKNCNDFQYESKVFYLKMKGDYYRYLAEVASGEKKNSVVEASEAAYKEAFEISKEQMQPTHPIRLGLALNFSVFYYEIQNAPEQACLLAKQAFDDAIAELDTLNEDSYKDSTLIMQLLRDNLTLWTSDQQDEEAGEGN

Variants of: B1
Settings: with isg15_human ISG15, P05161
Sequence of isg15_human ISG15, P05161 (P05161 whole entry): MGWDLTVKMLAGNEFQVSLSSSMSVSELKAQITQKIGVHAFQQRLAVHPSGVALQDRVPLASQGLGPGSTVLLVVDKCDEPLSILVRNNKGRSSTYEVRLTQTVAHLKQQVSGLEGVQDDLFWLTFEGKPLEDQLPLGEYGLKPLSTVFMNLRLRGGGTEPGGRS
In the case of K23R, the “effect of a mutation on the interaction” value is reported as “decreasing interaction strength”.
For K128R, the “effect of a mutation on the interaction” value was “with no effect”.
With K137R the “effect of a mutation on the interaction” value was “with no effect”.
In the case of K174R, the “effect of a mutation on the interaction” value is reported as “with no effect”.
For K68R, the “effect of a mutation on the interaction” value was “decreasing interaction strength”.
In the case of K169R, the “effect of a mutation on the interaction” value is reported as “with no effect”.
In the case of K235R, the “effect of a mutation on the interaction” value is reported as “increasing interaction strength”.
With K43R the “effect of a mutation on the interaction” value was “decreasing interaction strength”.
For K23R;K43R, the “effect of a mutation on the interaction” value was “disrupting interaction strength”.

Variants of: B2
Settings: with 1433f_human YWHAH
K68R was tested, and the “effect of a mutation on the interaction” value was “with no effect”.
In the case of K23R;K43R, the “effect of a mutation on the interaction” value is reported as “with no effect”.
